# Reference: the NTF2 design screens of Basanta et al. (2020)
# Test: protease stability score; higher = more stable; yeast display proteolysis, trypsin and chymotrypsin;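 note: relative to predicted unfolded state with 0 unfolded-like and 1 meaning tenfold more protease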
row,Sequence,protease stability score
1,SEDDETIERASRLLVEDHDTGDWESWEKNADPNMRLVIGDKDVVGRENVVEHLHRLRKKMGVKHVHLRVESIEVQGDKIRQDGRLLIIVNGQELRIEVRIVAIKVNGQWINRMVDVK,1.08
2,DDLKEDADKYSDLEREARQTGDEDFISNLMDPNVLVLINGREIHGREDVLKWLVDLRRKLGVDRFRSEVEDKHIDVQGDKIRIHGILRLNFNGQHFRIDVHIIFQKVDGRWHVREERYH,1.41
3,TEEYRHVEEVIRMTFELLRTGNEQELEDRADPHAKSNVNGQEIHGRERFTRWFLEMITHLGVKHVRVRHYTVVNGRVIVHLEFDFDGVKIDYTVVIWKINGKWFIKISHEEHH,2.09
4,DEDEELARKVLKVWNQAVQTGDEEVLHKLFDPNVQLVQGDKQLHGMESLVRFLRRYDVVRHVDSDVERIHVQGDKIRVTIRLIVDMEINGKRVRTELTIHFIIEKIDGRWVLRELHFE,0.964
5,DERDEVLEDTARRVLEWLTTGNWEELAKYADPNVKNDINGRIDHGREEMSRRIREELHKVKNLKFNITYFDIIGDKVHFWGTLHYDGRTMETHIHIEVVDGRLHHMQFEIK,0.983
6,SEDHHSLRNAWELLIKSIKTGDENLMERFADPSTKSRIDGVELVGREEVVHYFMQLRVKDVKLDEVDVVDGRVVIDGTLHGEYNGREETHKVRLFINKVDGQWILHSVEFH,0.938
7,SEEDRDLHESAKLSEEIEDTGDEHMIHKQADPNVRLDYNGREFHGREMFSKMMIEWFTKLGVDHVHRKEMRIQGDWIHLHFEVRVGDKRHEVHVVALKVNGRWLHHSFEVHER,1.16
8,DEREKHAKDFFDILLHLLLTGDWDKIIRMADPDVKLEIGDKRFHGMEHISETWLKRFTRLGVDHQHFHLHTVKFINGVATIHGRQHLHVGDKTIDLEVIIYVEKIDGRWILNNIEVR,1.11
9,DEHEELLRRLADEWFKSLLTGDEDRLLELADPNMRIRLLINGRDEKIHGWEELVRWFREIRFRSMDIDSFTLVNGKIQIRFKYRGRVNGQTHETRSEFLLIVIDGKVTHVEVRLE,2.46
10,DEDDKEAEKALRDMVHSWVTGDEQKNQELADPHVRVIIGEFNFVGRDDLDKWLREIRIHNIEIKDIDVFDGKVELKGTLTIRIGDKEVRHEVDFYMVKINGRWHLHRIQVH,2.08
11,TEEETRLREFMDRLLKIITTGDEKRFKDLADPHVRLFIDGVTIHGRDEAHEMWEIFGMKVKSTHVHEIHIQGDKVNIDTRLSGHFNGRDHIWEAHIYVVKIDGRWILEYIEIR,1.94
12,DESTEVLERIMKDFLDELRTGDWEKFMELADPNVRLHFNGVTNHGREEVTRYFREHLARFDHYEIENHRVTLVGDKLHLDVILRVHQGDKFREYKVEIRVVVYDGKIKEVHIIIR,2.44
13,DEREEASERMAELIVHLFETGDEDLIRRMVDPHVRWEFNGREIMGRELTTHVLHEIYHRVKNIRYRIESLDIQGDWLLVNSRLHVNGRTIEIHLIVEKVNGRWTLRELIVKVD,1.65
14,HEEEKIIEEASKRWLELMQTGDEDKVLHYLDPEYRSEWDGVEIHGRETFRKWLLDLLRKFKGLRFEFRDVRDVGDKVRIIGTVTYDGKVRDTRIDVVIVNGRYKSMEIHFN,1.69
15,HEYEEEVTKAIEVLLHLLMTGDFDQMLHLADPNYRVDINGQEYIGREWFEVIRDKFKNVKIKDMHIDHVIFIGDKVIIHSREHRQQGDKERTFTVVLYSRKINGQWVHTSVKFS,1.59
16,DEDFDIVKHIFDVYIDAILTGDFRTLERNIDPDAKLHFNGREYHGWEIVVKFMLEIRVHDVQYKTMHIYDGRVELHGRNDGVIDGQKTETDTKIIMVKIDGRWHVRHIRVG,1.33
17,DELKSLSRKATEDIVELIITGDEKMLREYMDPNVRVDINGQEIHGREIFFEYIRHLLEHMGVDHLKLDRMEVRDINGQLYIHFRGTTVFNGRTYDEELIWVIVKIDGRWYIEQIEIRFE,1.3
18,DREEEDYRRAWEHLHKDWKTGNEEHMERNADPNVRVEINGVERVGRELFVELMRHLVRHIRIEHVHVERSDIVNGVIILDMIVTGRIGDKSEIERVEVHTLKIDGRWLLTEVRFK,0.663
19,DEDEDLLRRFTELWNHIYLTGDERMLHHLVDPHARLDVNGKEMHGRELLIKWMVKEIRDLGADHYRIDIKHYHFVDGRAHVQSTLEVDIGDKRITFYIRLILLKVNGRWVVHTIYYH,1.55
20,HELLEIIHRVAQMIYENLLTGNEDLFEHLADPNRRLLVNGVDLVGWERVVKWEKEMRIHDHRLRDESMTRQGDKAFVHHRTELRGDINGREIHTETKLNIVIRKIDGKWIVERIEVRID,0.81
21,SEDEQLRYELAELFFHLISTGDEETIRHYFDPHVLVMIFVNGRNIENHGWEEMTRSLRELRIKDSRLKRVDVYGDYARMDIRVDGEINGVRRDTEVEIRIKWVNGRWKSVNIHIH,2.14
22,SEEDEELKEWLEEFVHALKTGDENLLQRLADPNTRLIFDGRKFHGREEYRKNYEHLRHRIDHIHDEKSTTVHLINGKVTVESRLDGEINGKRIIFKTIIFYWKFDGRWFLRSEEIR,0.935
23,DETERDVREAVRIWNEDVETGNEESLLRLIDPHVRLVINGQTFHGMESMLEVLNEFLKHIRVEHIEVKRIEIQGDKAIIDTNMDIEIDGKRKQKKTTLIIRKFNGRWHLSLVEIR,1.86
24,DEKEEFMKKLSKLFVELWITGNEEIFNKLMDPNTRSDVNGVENIGRDEIIRFWKEWRRRFGIKHIEVEHVHAIGDKIEIHGIQKAENHHTEIHIRVNVVDGRIREVEVRTH,2.26
25,DEEEHTAHVAHKLWEDSLHTGNEDNHRKLLDPHARIIVNGRLLHGWEDVEKILKDLGIKVMHMELERIKVVGDKLRIVGHLETRFDGRTIRLREELVVRKFNGRWHIEEINIL,1.24
